Where two headings read alike, the source gives them in different places.
T1: Human OX40 protein having a His-Tag (human, UniProt P43489 29-216, limits assumed)
T1 construct: Bought recombinant protein; also called hOX40-His; hOX40; not shown: His tag
T1 sequence (looked up): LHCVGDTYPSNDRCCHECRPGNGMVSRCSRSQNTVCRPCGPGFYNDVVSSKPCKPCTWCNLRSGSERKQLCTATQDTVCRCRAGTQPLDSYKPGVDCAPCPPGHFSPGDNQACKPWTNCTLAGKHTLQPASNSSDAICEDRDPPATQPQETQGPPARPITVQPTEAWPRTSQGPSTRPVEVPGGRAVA

T2: Human CTLA4 protein having a His-Tag (human, UniProt P16410 37-162, limits assumed)
T2 construct: Bought recombinant protein; also called hCTLA4-His; hCTLA4; not shown: His tag
T2 sequence (looked up): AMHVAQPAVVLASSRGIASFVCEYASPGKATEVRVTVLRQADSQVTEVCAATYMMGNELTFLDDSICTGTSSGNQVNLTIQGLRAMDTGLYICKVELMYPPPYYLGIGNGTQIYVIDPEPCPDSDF

T3: human OX40 expressed on transfected cells (human, UniProt P43489 29-277)
T3 construct: whole, on cells; also called hOX40 on HEK293T-hCTLA4-hOX40 cells; on Jurkat-luc-hOX40
T3 sequence (looked up): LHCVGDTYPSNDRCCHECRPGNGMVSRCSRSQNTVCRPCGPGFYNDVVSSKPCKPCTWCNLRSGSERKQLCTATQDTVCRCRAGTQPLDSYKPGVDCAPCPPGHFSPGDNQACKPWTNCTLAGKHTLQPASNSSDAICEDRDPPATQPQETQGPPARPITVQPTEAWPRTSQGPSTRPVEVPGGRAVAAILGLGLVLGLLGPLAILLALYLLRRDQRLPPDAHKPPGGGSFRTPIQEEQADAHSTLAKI


Key:
[1] = molecular target: T4, Cynomolgus/Rhesus macaque OX40/TNFRSF4/CD134 Protein, His Tag (Cynomolgus/Rhesus macaque); experiment: SPR Biacore 8K, Protein A chip; antibody captured, antigen analyte
T4 construct: Bought recombinant protein; also called fasOX40-His; monkey OX40

[2] = molecular target: T1, Human OX40 protein having a His-Tag; experiment: as above
[3] = molecular target: T2, Human CTLA4 protein having a His-Tag; experiment: as above
[4] = molecular target: T5, Cynomolgus/Rhesus macaque CTLA-4 Protein, His Tag (Cynomolgus/Rhesus macaque); experiment: as above
T5 construct: Bought recombinant protein; also called fasCTLA4-His; FasCTLA4-His

[5] = molecular target: T1, Human OX40 protein having a His-Tag; experiment: as above; remark: listed apart in the source
[6] = molecular target: T2, Human CTLA4 protein having a His-Tag; experiment: as above; remark: listed apart in the source
[7] = molecular target: T3, human OX40 expressed on transfected …; experiment: flow cytometry (MFI, anti-hIgG-Fc-Alexa Fluor 647) on HEK293T-hCTLA4-hOX40 cells co-expressing human CTLA4 and human OX40

Kd [1] [nM]	koff [1] [s⁻¹]	kon [1] [M⁻¹ s⁻¹]	Kd [2] [nM]	koff [2] [s⁻¹]	kon [2] [M⁻¹ s⁻¹]	Kd [5] [nM]	koff [5] [s⁻¹]	kon [5] [M⁻¹ s⁻¹]	Binder	other results
30.4	0.0257	845000	69.6	0.00947	136000	–	–	–	OX-2F5-CT-3D2-IgG1-SI (bispecific antibody, V domains shown, 1+1 knobs-into-holes human IgG1 with common light chain; SI mutations (S239D, I332E, EU)) VH 1: QVQLVESGPTLVKPTQTLTLTCTFSGFSLSTSGVGVGWIRQSPGKALEWLSLIYWDDDKRYNPSLKSRLTVTKDTSKNQVVLAMTNMDPVDTATYFCAHRAHSSSSSDYWGQGTLVTVSS VH 2: QVQLVESGPGLVKPSETLSLTCTVSGDSIRSSHYYWGWIRQPPGKGLEWIGSIYFNGITYYSPSLKSRVTISVDTSKNQFSLKLTSVTAADTAVFYCARHNNYYDSSGYWYYFDYWGQGTLVTVSS VL: not shown	–
–	–	–	–	–	–	–	–	–	OX-2F2-CT-3D2-IgG1-SI (bispecific antibody, V domains shown, 1+1 knobs-into-holes human IgG1 with common light chain; SI mutations (S239D, I332E, EU)) VH 1: QVQLVESGGGLVQPGGSLRLSCAASGFTVSNNYMSWVRQAPGKGLEWVSVIYGGGDTYYADSVKGRFTISRDNSQNTLYLQMTSLRADDTAVYYCARGLTIFGVVPFDPWGQGTLVTVSS VH 2: QVQLVESGPGLVKPSETLSLTCTVSGDSIRSSHYYWGWIRQPPGKGLEWIGSIYFNGITYYSPSLKSRVTISVDTSKNQFSLKLTSVTAADTAVFYCARHNNYYDSSGYWYYFDYWGQGTLVTVSS VL: not shown	Kd [3]: 14.2 nM; koff [3]: 0.000774 s⁻¹; kon [3]: 54600 M⁻¹ s⁻¹; Kd [4]: 4.77 nM; koff [4]: 0.000612 s⁻¹; kon [4]: 128000 M⁻¹ s⁻¹
–	–	–	–	–	–	45.6	0.0343	753000	OX-2F5-IgG1 (antibody, V domains shown, Human anti-OX40 antibody; IgG1 constant regions) VH: QVQLVESGPTLVKPTQTLTLTCTFSGFSLSTSGVGVGWIRQSPGKALEWLSLIYWDDDKRYNPSLKSRLTVTKDTSKNQVVLAMTNMDPVDTATYFCAHRAHSSSSSDYWGQGTLVTVSS VL: not shown	–
2.48	0.000371	150000	22.8	0.00698	306000	–	–	–	OX-1F9-CT-3D2-IgG1-SI (bispecific antibody, V domains shown, 1+1 knobs-into-holes human IgG1 with common light chain; SI mutations (S239D, I332E, EU)) VH 1: EVQLVESGGGLVQPGGSLRLSCAASGFTFSNYEMNWVRQAPGKGLEWISYIGSSGSTIYYADSVKGRFTISRDNAKNSLYLQMNSLRAEDTAVYYCAVDYIFDYWGQGTLVTVSS VH 2: QVQLVESGPGLVKPSETLSLTCTVSGDSIRSSHYYWGWIRQPPGKGLEWIGSIYFNGITYYSPSLKSRVTISVDTSKNQFSLKLTSVTAADTAVFYCARHNNYYDSSGYWYYFDYWGQGTLVTVSS VL: not shown	–
–	–	–	–	–	–	22.6	0.00744	330000	OX-1F9-IgG1 (antibody, V domains shown, Human anti-OX40 antibody from RenLite mice) VH: EVQLVESGGGLVQPGGSLRLSCAASGFTFSNYEMNWVRQAPGKGLEWISYIGSSGSTIYYADSVKGRFTISRDNAKNSLYLQMNSLRAEDTAVYYCAVDYIFDYWGQGTLVTVSS VL: not shown	–
–	–	–	–	–	–	7.59	0.000412	54400	OX-2C11-IgG1 (antibody, V domains shown, Human anti-OX40 antibody; IgG1 constant regions) VH: EVQLVQSGGGLVKPGGSLRLSCAASGFTFSDSYMSWIRQAPGKGLEWISYISSSISYTKYADSVKGRFTISRDNAKNSLYLEMNSLRAEDTAVYYCARDYYDSGNYYYYFDYWGQGTLVTVSS VL: not shown	–
37	0.000685	18500	16.7	0.000626	37500	–	–	–	OX-2C11-CT-4E12-IgG1-SI (bispecific antibody, V domains shown, 1+1 knobs-into-holes human IgG1 with common light chain; SI mutations (S239D, I332E, EU) in Fc) VH 1: EVQLVQSGGGLVKPGGSLRLSCAASGFTFSDSYMSWIRQAPGKGLEWISYISSSISYTKYADSVKGRFTISRDNAKNSLYLEMNSLRAEDTAVYYCARDYYDSGNYYYYFDYWGQGTLVTVSS VH 2: QVQLVESGPGLVKPSETLSLTCAVSGGSISSSSYYWGWIRQPPGKGLEWIGNIYYTGITYYNPSLKSRITISVDTSKNQFSLKLSSVTAADTAVYYCARVGGYSYGYLFDYWGQGTLVTVSS VL: not shown	Kd [3]: 10.2 nM; koff [3]: 0.00023 s⁻¹; kon [3]: 22400 M⁻¹ s⁻¹; Kd [4]: 11.2 nM; koff [4]: 0.000422 s⁻¹; kon [4]: 37800 M⁻¹ s⁻¹
–	–	–	–	–	–	20	0.0217	1.09e+06	OX-2F2-IgG1 (antibody, V domains shown, Human anti-OX40 antibody; IgG1 constant regions) VH: QVQLVESGGGLVQPGGSLRLSCAASGFTVSNNYMSWVRQAPGKGLEWVSVIYGGGDTYYADSVKGRFTISRDNSQNTLYLQMTSLRADDTAVYYCARGLTIFGVVPFDPWGQGTLVTVSS VL: not shown	–
4.91	0.000205	41800	50.2	0.0136	270000	–	–	–	CT-5E3-OX-2F2-IgG1-SI (bispecific antibody, V domains shown, 1+1 knobs-into-holes human IgG1 with common light chain; SI mutations (S239D, I332E, EU)) VH 1: QVQLVESGPGLVKPSETLSLTCTVSGGSISSSSYYWGWIRQPPGKGLEWIGSIYYTGNTYYNPSLKSRVTISVDTSKNQFSLKLSSVTAADTAVYYCARVGFSYGHPFDYWGQGTLVTVSS VH 2: QVQLVESGGGLVQPGGSLRLSCAASGFTVSNNYMSWVRQAPGKGLEWVSVIYGGGDTYYADSVKGRFTISRDNSQNTLYLQMTSLRADDTAVYYCARGLTIFGVVPFDPWGQGTLVTVSS VL: not shown	Kd [3]: 27.8 nM; koff [3]: 0.000909 s⁻¹; kon [3]: 32700 M⁻¹ s⁻¹; Kd [4]: 8.36 nM; koff [4]: 0.00105 s⁻¹; kon [4]: 126000 M⁻¹ s⁻¹
–	–	–	–	–	–	–	–	–	CT-4E12-IgG1 (antibody, V domains shown, Human anti-CTLA4 antibody; IgG1 constant regions) VH: QVQLVESGPGLVKPSETLSLTCAVSGGSISSSSYYWGWIRQPPGKGLEWIGNIYYTGITYYNPSLKSRITISVDTSKNQFSLKLSSVTAADTAVYYCARVGGYSYGYLFDYWGQGTLVTVSS VL: not shown	Kd [6]: 17 nM; koff [6]: 0.000422 s⁻¹; kon [6]: 24800 M⁻¹ s⁻¹
–	–	–	–	–	–	–	–	–	CT-5E3-IgG1 (antibody, V domains shown, Human anti-CTLA4 antibody; IgG1 constant regions) VH: QVQLVESGPGLVKPSETLSLTCTVSGGSISSSSYYWGWIRQPPGKGLEWIGSIYYTGNTYYNPSLKSRVTISVDTSKNQFSLKLSSVTAADTAVYYCARVGFSYGHPFDYWGQGTLVTVSS VL: not shown	Kd [6]: 21.8 nM; koff [6]: 0.000674 s⁻¹; kon [6]: 30900 M⁻¹ s⁻¹
–	–	–	–	–	–	–	–	–	CT-5F9-IgG1 (antibody, V domains shown, Human anti-CTLA4 antibody; IgG1 constant regions) VH: QVQLVESGPGLLKPSETLSLTCTVSGGSISSSSSYWGWIRQPPGKGLEWIGSIYYSGITYYNPSLKSRVTISVDTSKNQFSLKVSSVTAADTAVYYCARLNWNQVFDYWGQGTLVTVSS VL: not shown	Kd [6]: 7.48 nM; koff [6]: 0.00123 s⁻¹; kon [6]: 164000 M⁻¹ s⁻¹
–	–	–	–	–	–	13.8	0.00824	598000	OX-H7-IgG1 (antibody, V domains shown, Monoclonal anti-OX40 antibody, IgG1 constant regions; also called 040-H7-IgG1) VH: QITLKESGPTLVKPAQTLTLTCTFSGFSLSTSGVGVGWIRQPPGKALEWLALIYWDDDKLYSPSLKSRLTITKDTSKNQVVLAMTNMDPVDTATYYCAHSQLGRDDYWGQGTLVTVSS VL: EIVLTQSPATLCLSPGERATLSCRASQSVSNYLAWYQQKPGQAPRLLIYAASSRATGIPARFSGSGSGTDFTLTISTLEPEDFAVYYCQQRRDWPPTFGQGTKVEIK	EC50 (read off the curve) [7]: ~5 µg/mL

From US20250115668A1 (BIOCYTOGEN PHARMACEUTICALS BEIJING, published 2025)
